Data on two molecules can be found in publication PMC2852419, “Identification of SOX9 Interaction Sites in the Genome of Chondrocytes”.

In the data set the target is SOX9 (Homo sapiens, UniProt P48436 1-509). The experiment in a line: EMSA; EMSA with recombinant human SOX9 and 32P probes as in cited ref 67; buffer, salt, pH and temperature not given. The following applies: protein: recombinant; chain copies: 2; label: 32P-dCTP Klenow fill-in.
Chain of SOX9 (P48436 whole entry): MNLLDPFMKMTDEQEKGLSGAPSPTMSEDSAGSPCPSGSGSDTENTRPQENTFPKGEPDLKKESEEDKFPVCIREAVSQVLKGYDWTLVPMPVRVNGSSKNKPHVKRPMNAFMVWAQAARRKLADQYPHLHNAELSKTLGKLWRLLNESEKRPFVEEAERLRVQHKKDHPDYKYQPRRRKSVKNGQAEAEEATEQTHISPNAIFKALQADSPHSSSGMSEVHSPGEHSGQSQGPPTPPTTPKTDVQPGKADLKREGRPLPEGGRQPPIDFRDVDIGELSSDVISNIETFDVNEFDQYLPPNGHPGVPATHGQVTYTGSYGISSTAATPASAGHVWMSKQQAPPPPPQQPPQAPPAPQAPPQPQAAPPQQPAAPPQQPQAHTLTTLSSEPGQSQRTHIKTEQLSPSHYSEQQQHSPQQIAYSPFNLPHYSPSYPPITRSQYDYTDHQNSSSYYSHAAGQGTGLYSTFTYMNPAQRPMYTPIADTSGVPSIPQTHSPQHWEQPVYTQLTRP

B1: Col2a1 intron 6 mutant (dsDNA)
DNA 1: GGCAGATAGCTGTTTTCCTTTTCGACAGAAACCCAG
DNA 2: CTGGGTTTCTGTCGAAAAGGAAAACAGCTATCTGCC
On to B1, for which the binding result was “no binding”.

B2: Col2a1 intron 6 (human) (dsDNA)
DNA 1: GGCAGGTAACTGAGGACTTTCTTTATAGAATCCCAG
DNA 2: CTGGGATTCTATAAAGAAAGTCCTCAGTTACCTGCC
Regarding B2, the binding result is given as “binds”.
